# Values of other authors, collected in PMC7511354.
# pKd: −log10 of the molar value.
# Biological target: CYP2C9 (Homo sapiens) (UniProt P11712)
# Sequence of UniProt P11712 (P11712 whole entry): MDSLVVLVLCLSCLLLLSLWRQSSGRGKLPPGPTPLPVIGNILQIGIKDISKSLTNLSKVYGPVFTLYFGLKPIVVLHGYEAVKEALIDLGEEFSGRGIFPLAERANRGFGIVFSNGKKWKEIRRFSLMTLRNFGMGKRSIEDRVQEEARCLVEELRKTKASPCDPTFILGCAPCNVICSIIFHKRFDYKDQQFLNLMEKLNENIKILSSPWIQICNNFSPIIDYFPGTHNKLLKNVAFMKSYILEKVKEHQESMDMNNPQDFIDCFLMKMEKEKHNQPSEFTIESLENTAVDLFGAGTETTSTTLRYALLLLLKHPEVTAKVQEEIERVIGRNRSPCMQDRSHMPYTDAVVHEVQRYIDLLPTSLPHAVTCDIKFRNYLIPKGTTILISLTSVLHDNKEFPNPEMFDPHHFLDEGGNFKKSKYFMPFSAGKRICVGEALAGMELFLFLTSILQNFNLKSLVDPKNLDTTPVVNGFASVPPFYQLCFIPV
substance,measurement,value
cytochrome b5 (from UniProt P00167),pKd,6.10
